{"source": "patent US20110311550A1", "assay_in_all_cases": "ELISA, lectin-captured E1E2 lysate, Ab 1 ug/ml", "key": {"[1]": {"target": "E1E2 complex (H77) with E1 mutation V266A (HCV genotype 1a, isolate H77) (UniProt P27958)"}, "[2]": {"target": "E1E2 complex (H77) with E1 mutation P244A (HCV genotype 1a, isolate H77) (UniProt P27958)"}, "[3]": {"target": "E1E2 complex (H77) with E1 mutation S327A (HCV genotype 1a, isolate H77) (UniProt P27958)"}, "[4]": {"target": "E1E2 complex (H77) with E1 mutation L221A (HCV genotype 1a, isolate H77) (UniProt P27958)"}, "[5]": {"target": "E1E2 complex (H77) with E2 mutation R614A (HCV genotype 1a, isolate H77) (UniProt P27958)"}, "[6]": {"target": "E1E2 complex (H77) with E1 mutation A269G (HCV genotype 1a, isolate H77) (UniProt P27958)"}, "[7]": {"target": "E1E2 complex (H77) with E1 mutation H261A (HCV genotype 1a, isolate H77) (UniProt P27958)"}, "[8]": {"target": "E1E2 complex (H77) with E1 mutation P295A (HCV genotype 1a, isolate H77) (UniProt P27958)"}, "[9]": {"target": "E1E2 complex (H77) with E1 mutation R296A (HCV genotype 1a, isolate H77) (UniProt P27958)"}, "[10]": {"target": "E1E2 complex (H77) with E2 mutation F447A (HCV genotype 1a, isolate H77) (UniProt P27958)"}, "[11]": {"target": "E1E2 complex (H77) with E2 mutation H617A (HCV genotype 1a, isolate H77) (UniProt P27958)"}, "[12]": {"target": "E1E2 complex (H77) with E1 mutation V194A (HCV genotype 1a, isolate H77) (UniProt P27958)"}, "[13]": {"target": "E1E2 complex (H77) with E2 mutation Y618A (HCV genotype 1a, isolate H77) (UniProt P27958)"}, "[14]": {"target": "E1E2 complex (H77) with E2 mutation E637A (HCV genotype 1a, isolate H77) (UniProt P27958)"}, "[15]": {"target": "E1E2 complex (H77) with E1 mutation D279A (HCV genotype 1a, isolate H77) (UniProt P27958)"}, "[16]": {"target": "E1E2 complex (H77) with E1 mutation N196A/N209A (HCV genotype 1a, isolate H77) (UniProt P27958)"}, "[17]": {"target": "E1E2 complex (H77) with E1 mutation T204A (HCV genotype 1a, isolate H77) (UniProt P27958)"}, "[18]": {"target": "E1E2 complex (H77) with E1 mutation N196A/N305A (HCV genotype 1a, isolate H77) (UniProt P27958)"}, "[19]": {"target": "E1E2 complex (H77) with E1 mutation S211A (HCV genotype 1a, isolate H77) (UniProt P27958)"}}, "data": [{"substance": "mouse anti-E1 MAb A4 (antibody)", "values": [{"measurement": "Binding relative to wt (%)", "setting": "[1]", "result": 96, "unit": "%"}, {"measurement": "Binding relative to wt (%)", "setting": "[2]", "result": 85, "unit": "%"}, {"measurement": "Binding relative to wt (%)", "setting": "[3]", "result": 85, "unit": "%"}, {"measurement": "Binding relative to wt (%)", "setting": "[4]", "result": 104, "unit": "%"}, {"measurement": "Binding relative to wt (%)", "setting": "[5]", "result": 133, "unit": "%"}, {"measurement": "Binding relative to wt (%)", "setting": "[6]", "result": 47, "unit": "%"}, {"measurement": "Binding relative to wt (%)", "setting": "[7]", "result": 96, "unit": "%"}, {"measurement": "Binding relative to wt (%)", "setting": "[8]", "result": 132, "unit": "%"}, {"measurement": "Binding relative to wt (%)", "setting": "[9]", "result": 108, "unit": "%"}, {"measurement": "Binding relative to wt (%)", "setting": "[10]", "result": 98, "unit": "%"}, {"measurement": "Binding relative to wt (%)", "setting": "[11]", "result": 140, "unit": "%"}, {"measurement": "Binding relative to wt (%)", "setting": "[12]", "result": 160, "unit": "%"}, {"measurement": "Binding relative to wt (%)", "setting": "[13]", "result": 157, "unit": "%"}, {"measurement": "Binding relative to wt (%)", "setting": "[14]", "result": 122, "unit": "%"}, {"measurement": "Binding relative to wt (%)", "setting": "[15]", "result": 28, "unit": "%"}, {"measurement": "Binding relative to wt (%)", "setting": "[16]", "result": 51, "unit": "%"}, {"measurement": "Binding relative to wt (%)", "setting": "[17]", "result": 102, "unit": "%"}, {"measurement": "Binding relative to wt (%)", "setting": "[18]", "result": 69, "unit": "%"}, {"measurement": "Binding relative to wt (%)", "setting": "[19]", "result": 106, "unit": "%"}]}]}
